# Measurements taken from US7732151B2, “Use of IRS-polypeptides for identifying of pharmaceutically active compounds” (Sanofi-Aventis Deutschland GmbH, priority 2003, dated 2010).
# How the values were obtained:
# [1] = molecular target: T1, rat liver insulin receptor (WGA-IR) (Rattus norvegicus, UniProt P15127); test: ALPHAScreen: phosphorylation of biotinylated IRS-1 fragment by wheat germ lectin affinity-purified rat liver insulin receptor; format: biochemical; settings: 85 nM biotinylated IRS fragment, 50 μM ATP, 30° C. for 30 minutes, p-Tyr antibody detection, FIG. 4
# T1 construct: tissue Sigma (named as alternative source) 70543; host or cells: rat liver
# Excerpt: The measurement of the kinase activity using ALPHAScreen™ from Perkin-Elmer Life Sciences, which is particularly expedient for the purposes of the present invention, takes place for example by the kinase to be investigated phosphorylating a biotinylated peptide in a biochemical mixture in the presence of ATP. The phosphorylated peptide is then bound by a specific anti-phospho antibody to which protein A-conjugated acceptor beads or provided with suitable second antibodies are coupled. The same mixture contains streptavidin-coupled donor beads which bind the biotin portion of the peptide. The binding to the peptide brings acceptor beads and donor beads in direct vicinity, starting a cascade of chemical reactions which generate a highly amplified, detectable luminescence signal: a photosensitizer in the donor bead is excited by laser excitation to convert oxygen in the surroundings into a singlet status. The singlet oxygen then diffuses to the acceptor bead where it excites a thioxene derivative which thus emits a chemiluminescence with a wavelength of 370 nm, which in turn excites further fluorophores in the acceptor bead to luminesce light with wavelengths of 520 to 620 nm. Since excitation of the fluorophores by singlet oxygen takes place only when donor bead and acceptor bead are in close vicinity, only then are detectable signals generated. […]
# [2] = kinetic constant as enzyme substrate; cited from earlier work
# T1 sequence (P15127 27-759 limits assumed): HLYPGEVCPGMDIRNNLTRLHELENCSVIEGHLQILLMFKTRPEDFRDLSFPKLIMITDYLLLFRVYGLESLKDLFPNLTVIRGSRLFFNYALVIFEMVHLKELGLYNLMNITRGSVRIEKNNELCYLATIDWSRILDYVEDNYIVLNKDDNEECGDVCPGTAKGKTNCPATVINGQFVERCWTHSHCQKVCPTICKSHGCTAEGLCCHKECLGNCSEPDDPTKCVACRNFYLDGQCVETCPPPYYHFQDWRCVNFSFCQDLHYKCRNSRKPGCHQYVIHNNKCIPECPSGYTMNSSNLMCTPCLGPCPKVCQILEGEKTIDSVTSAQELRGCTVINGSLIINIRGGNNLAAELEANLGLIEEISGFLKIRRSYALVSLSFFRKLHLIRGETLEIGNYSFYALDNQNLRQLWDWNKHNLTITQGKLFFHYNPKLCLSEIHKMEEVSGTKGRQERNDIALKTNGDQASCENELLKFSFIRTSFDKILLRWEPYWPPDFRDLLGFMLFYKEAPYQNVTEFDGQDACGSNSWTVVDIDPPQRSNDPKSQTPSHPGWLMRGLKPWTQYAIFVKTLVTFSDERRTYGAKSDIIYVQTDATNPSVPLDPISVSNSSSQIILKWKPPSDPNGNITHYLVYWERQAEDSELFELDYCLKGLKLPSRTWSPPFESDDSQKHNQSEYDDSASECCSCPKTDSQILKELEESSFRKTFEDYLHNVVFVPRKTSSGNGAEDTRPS
# T1 sequence (P15127 764-1383 partner limits assumed): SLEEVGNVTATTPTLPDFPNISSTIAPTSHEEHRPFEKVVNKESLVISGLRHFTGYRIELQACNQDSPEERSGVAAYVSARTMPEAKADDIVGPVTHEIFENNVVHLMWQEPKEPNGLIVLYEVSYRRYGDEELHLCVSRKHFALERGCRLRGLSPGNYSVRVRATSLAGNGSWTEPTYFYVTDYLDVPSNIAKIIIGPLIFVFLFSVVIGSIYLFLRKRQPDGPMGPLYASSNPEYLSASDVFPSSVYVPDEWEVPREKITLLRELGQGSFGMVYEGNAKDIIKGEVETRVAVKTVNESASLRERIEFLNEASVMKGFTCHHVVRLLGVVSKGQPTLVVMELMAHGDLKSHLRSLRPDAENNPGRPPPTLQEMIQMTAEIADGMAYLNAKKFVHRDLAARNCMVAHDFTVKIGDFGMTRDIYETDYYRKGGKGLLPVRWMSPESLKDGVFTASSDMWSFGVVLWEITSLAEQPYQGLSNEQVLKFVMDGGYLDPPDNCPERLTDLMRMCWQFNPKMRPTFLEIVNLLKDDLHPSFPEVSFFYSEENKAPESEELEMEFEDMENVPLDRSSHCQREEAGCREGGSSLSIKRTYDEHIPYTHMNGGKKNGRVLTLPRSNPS
EC50 [1],Molecule,Km [2]
10 nM,"insulin: human insulin, peptide hormone, commercially available from Sigma under order number I-9266",
,"IRS-1: insulin receptor substrate 1 polypeptide used as kinase substrate (protein, listed as Homo sapiens) MASPPESDGFSDVRKVGYLRKPKSMHKRFFVLRAASEAGGPARLEYYENEKKWRHKSSAPKRSIPLESCFNINKRADSKNKHLVALYTRDEHFAIAADSEAEQDSWYQALLQLHNRAKGHHDGAAALGAGGGGGSCSGSSGLGEAGEDLSYGDVPPGPAFKEVWQVILKPKGLGQTKNLIGIYRLCLTSKTISFVKLNSEAAAVVLQLMNIRRCGHSENFFFIEVGRSAVTGPGEFWMQVDDSVVAQNMHETILEAMRAMSDEFRPRSKSQSSSNCSNPISVPLRRHHLNNPPPSQVGLTRRSRTESITATSPASMVGGKPGSFRVRASSDGEGTMSRPASVDGSPVSPSTNRTHAHRHRGSARLHPPLNHSRSIPMPASRCSPSATSPVSLSSSSTSGHGSTSDCLFPRRSSASVSGSPSDGGFISSDEYGSSPCDFRSSFRSVTPDSLGHTPPARGEEELSNYICMGGKGPSTLTAPNGHYILSRGGNGHRCTPGTGLGTSPALAGDEAASAADLDNRFRKRTHSAGTSPTITHQKTPSQSSVASIEEYTEMMPAYPPGGGSGGRLPGHRHSAFVPTRSYPEEGLEMHPLERRGGHHRPDSSTLHTDDGYMPMSPGVAPVPSGRKGSGDYMPMSPKSVSAPQQIINPIRRHPQRVDPNGYMMMSPSGGCSPDIGGGPSSSSSSSNAVPSGTSYGKLWTNGVGGHHSHVLPHPKPPVESSGGKLLPCTGDYMNMSPVGDSNTSSPSDCYYGPEDPQHKPVLSYYSLPRSFKHTQRPGEPEEGARHQHLRLSTSSGRLLYAATADDSSSSTSSDSLGGGYCGARLEPSLPHPHHQVLQPHLPRKVDTAAQTNSRLARPTRLSLGDPKASTLPRAREQQQQQQPLLHPPEPKSPGEYVNIEFGSDQSGYLSGPVAFHSSPSVRCPSQLQPAPREEETGTEEYMKMDLGPGRRAAWQESTGVEMGRLGPAPPGAASICRPTRAVPSSRGDYMTMQMSCPRQSYVDTSPAAPVSYADMRTGIAAEEVSLPRATMAAASSSSAASASPTGPQGAAELAAHSSLLGGPQGPGGMSAFTRVNLSPNRNQSAKVIRADPQGCRRRHSSETFSSTPSATRVGNTVPFGAGAAVGGGGGSSSSSEDVKRHSSASFENVWLRPGELGGAPKEPAKLCGAAGGLENGLNYIDLDLVKDFKQCPQECTPEPQPPPPPPPHQPLGSGESSSTRRSSEDLSAYASISFQKQPEDRQ",19 µM
